# From patent publication US20220298254A1 (HUMMINGBIRD BIOSCIENCE HOLDINGS PTE, published 2022)
# Like-named read-outs stand apart in the source and are kept apart here.
# Legend:
# [1] = target: T1, untagged human CD47 protein (Sinobiological Inc) (human, UniProt Q08722 19-141); test: competition ELISA: inhibition of His-tagged SIRPα binding to coated human CD47
# T1 construct: Bought
# his-tagged human CD47 [2] = target: T2, his-tagged human CD47 (human, UniProt Q08722 19-141); test: BLI, his-tagged human CD47 on anti-Penta-HIS (HIS1K) sensors, antibody as analyte
# T2 construct: not shown: his tag
# Method: (§1) Buffer baseline was obtained for 30 s, and then sensors were loaded with his-tagged human CD47 (1.2 μM) for 120 s.
# [3] = target: T3, human CD47 (recombinant protein, construct not stated) (human, UniProt Q08722 19-141); test: BLI (BLItz), IgG1 captured on anti-human Fc tips, human CD47 as analyte, 1:1 global fit
# T3 construct: also called hCD47; human CD47 protein
# Method: Bio-Layer Interferometry (BLI) experiments were performed using a single channel BLItz system (ForteBio, Menlo Park, Calif.) using Anti-human immunoglobulin G (IgG) Fc (AHC) coated biosensor tips (Pall ForteBio, Menlo Park, Calif.) for capturing human IgGs. Biosensors were first hydrated for at least 10 m in assay buffer (phosphate buffered saline) followed by buffer baseline for 30 s and loading of the human IgGs onto the biosensor tips at concentrations ranging from 25-50 nM for 120 s. The tips were then washed briefly for 30 s with the assay buffer to remove nonspecifically bound proteins or unbound IgGs for obtaining a second buffer baseline. […] All the BLITz runs were measured at room temperature at a stirring speed of 1000 rpm and AHC biosensors were regenerated using 10 mM of glycine (pH 2.7) after the assay. Binding affinity between the immobilized antibodies on the AHC sensors and human CD47 were determined by analyzing the binding kinetic curves using the software BLItz Pro. All the sensorgrams were reference subtracted and globally fitted into a 1:1 model which analysed the binding curves at different concentrations of antigens and generated kinetic constants (KD/Ka/Kd) for the globally fitted data. […]
# (§2) The anti-CD47 antibody clones in IgG1 format were analyzed for binding affinity to human CD47.
# [4] = target: T3, human CD47 (recombinant protein, …); test: ELISA on coated human CD47
# Method: (§3) 96-well plates (Nunc, Denmark) were coated with 1 μg/ml of human CD47 or VISTA protein in PBS, for 1 h at room temperature. Plates were blocked for 1 h at room temperature with 1% BSA in Tris buffer saline containing 0.05% Tween 20 (TBS-T). The test antigen-binding molecules were added at concentrations ranging from to 0.002 μg/ml to 200 μg/ml, and the plates were incubated at room temperature for 1 h. Plates were then washed three times with TBS-T, and were then incubated with a HRP-conjugated secondary antibody for 1 h at room temperature. After washing, plates were developed with colorimetric detection substrate 3,3′,5,5′-tetramethylbenzidine (Turbo-TMB; Pierce, USA). The reaction was stopped after 3.5 min with 2M […], and OD was measured at 450 nm.
# [5] = target: T3, human CD47 (recombinant protein, …); test: BLI (BLItz), IgG1 captured on anti-human Fc tips, human CD47 as analyte, 1:1 global fit; remark: listed apart in the source
# Method: Biosensors were first hydrated for at least 10 m in assay buffer (phosphate buffered saline) followed by buffer baseline for 60 s and loading of the human IgGs onto the biosensor tips at 25 nM for 120 s. The tips were then washed briefly for 60 s with the assay buffer to remove nonspecifically bound proteins or unbound IgGs for obtaining a second buffer baseline. The association phase of the IgGs with antigens (250 nM to 62.5 nM) was set up at 120 s which was followed by a dissociation phase (assay buffer alone) for 120 s. All the BLITz runs were measured at room temperature at a stirring speed of 1000 rpm and AHC biosensors were regenerated using 10 mM of glycine (pH 2.7) after the assay. Binding affinity between the immobilized antibodies on the AHC sensors and human CD47 were determined by analyzing the binding kinetic curves using the software BLItz Pro. All the sensorgrams were reference subtracted and globally fitted into a 1:1 model which analysed the binding curves at different concentrations of antigens and generated kinetic constants (KD/Ka/Kd) for the globally fitted data. All the binding curves were subjected to step correction which corrects the misalignment between association and dissociation steps and only the curves with R² values greater than 0.9 were used for analysis.
# his-tagged human CD47 [6] = target: T2, his-tagged human CD47; test: BLI (Octet), his-tagged human CD47 loaded on anti-Penta-HIS (HIS1K) sensors, antibody as analyte
# Method: as §1
# human VISTA protein = human VISTA protein (human, UniProt Q9H7M9 33-194, limits assumed); test: ELISA on coated human VISTA protein
# Method: as §3
# In a separate ELISA, the antigen-binding molecules were evaluated for binding to human VISTA.
# [7] = target: T3, human CD47 (recombinant protein, …); test: BLI (BLItz), IgG captured on anti-human IgG Fc (AHC) tips, human CD47 as analyte, global 1:1 fit
# Method: Bio-Layer Interferometry (BLI) experiments were performed using a single channel BLItz system (ForteBio, Menlo Park, Calif.) using Anti-human immunoglobulin G (IgG) Fc (AHC) coated biosensor tips (Pall ForteBio, Menlo Park, Calif.) for capturing human IgGs. Biosensors were first hydrated for at least 10 m in assay buffer (phosphate buffered saline) followed by buffer baseline for 30 s and loading of the human IgGs onto the biosensor tips at concentrations ranging from 25-50 nM for 120 s. The tips were then washed briefly for 30 s with the assay buffer to remove nonspecifically bound proteins or unbound IgGs for obtaining a second buffer baseline. The association phase of the IgGs with antigens (500 nM-0 nM) was set up at 120 s which was followed by a dissociation phase (assay buffer alone) for 120 s. All the BLITz runs were measured at room temperature at a stirring speed of 1000 rpm and AHC biosensors were regenerated using 10 mM of glycine (pH 2.7) after the assay. Binding affinity between the immobilized antibodies on the AHC sensors and human CD47 were determined by analyzing the binding kinetic curves using the software BLItz Pro. All the sensorgrams were reference subtracted and globally fitted into a 1:1 model which analysed the binding curves at different concentrations of antigens and generated kinetic constants (KD/Ka/Kd) for the globally fitted data. All the binding curves were subjected to step correction which corrects the misalignment between association and dissociation steps and only the curves with R² values greater than 0.9 were used for analysis.
# as §2
binder,measurement,setting,value
"anti-CD47 clone 1-1-A1_BM IgG1 (antibody, V domains shown) VH: QVQLQQSGPDLKKPGASVKVSCKVSGYTFTNYVIHWVRQKPGQGLEWMGYINPYNDGTKSNEKFKGKATLTSDKSSTSAYMELSSLTSEDTAVYYCASGGYYTMDYWGQGTSVTVSS VL: DVVMTQTPLSLPVTLGDQASISCRSSQHLEYSNGYSYLHWYQQRPGQSPQLLIYKISNRFSGVPDRFSGSGSGTDFTLKISRVEAEDLGVYYCSQSTHVPYTFGGGTKLEIKR",Fold increase in IC50 relative to 1-1-A1_BM,[1],1 fold
same,IC50,[1],0.474 mg/L
same,Kd,his-tagged human CD47 [2],0.0104 µM
same,Kd,[3],0.0161 µM
same,EC50,[4],0.0018 mg/L
same,Fold increase in EC50 relative to 1-1-A1_BM,[4],1 fold
same,Kd,[5],0.00931 µM
same,koff,[5],0.00121 s⁻¹
same,kon,[5],130000 M⁻¹ s⁻¹
same,koff,his-tagged human CD47 [6],0.000618 s⁻¹
same,kon,his-tagged human CD47 [6],59400 M⁻¹ s⁻¹
same,binding result,human VISTA protein,no binding (tested: 0.002 µg/ml to 200 µg/ml)
same,koff,[7],0.00217 s⁻¹
same,kon,[7],134000 M⁻¹ s⁻¹
